In patent US20030207791A1, “Materials and methods relating to the treatment of leukaemias” (priority 2000, published 2003):

Columns and labels:
[1] = system: murine hematopoietic progenitors (lin-); test: In vitro differentiation of murine hematopoietic progenitor cells transduced with retroviral constructs; format: cell-based; details: for effect on differentiation of transduced progenitors: compared with control cells
Method: FIG. 5. A heterologous oligomerization domain activates the transforming potential of RAR. (A-B) p53-RAR form oligomers. (A) Nuclear extracts from COS-1 cells transfected with expression vectors for p53-RAR or RAR were incubated with tritiated RA (10 nM), fractionated and analysed as described in FIG. 3A. Note that the low MW peak of RA-binding capacity (coinciding with RAR) in p53-RAR cells derives from expression of wild type RAR, starting from its own ATG-conserved in the p53-RAR expression vector (see below)-. (B) Fractions from gel filtration of in vitro translated, ^35-S labelled p53-RAR were analysed by SDS-PAGE, followed by autoradiography. Note that two products are generated in the reaction: full-length p53-RAR, fractionating in oligomeric complexes, and RAR, starting from the internal ATG site of RAR and fractionating as a monomer. (C-D) Effects of RAR chimeric proteins on differentiation of murine hematopoietic progenitors. Lin-cells were transduced with the indicated retroviral vectors and then sorted by FACS on the basis of their GFP positivity. In the case of ΔCC-PML-RAR, GFP+ cells were sorted in GFP^high or GFP^low expressors. After sorting, cells were either plated in differentiation medium in the absence or in the presence of RA (3 nM or 1 μM) (C), or analysed by Western blot (D). C, control, P-R, PML-RAR, ΔCC-P-R, ΔCC-PML-RAR, G-PR, GFP-PML-RAR, G-ΔCCPR, GFP-ΔCC-PML-RAR, G-p53R, GFP-p53-RAR. As described, RA delays myeloid differentiation of control cells, leading to a maximum 20-30% reduction in the number of Mac1 + cells (Purton et al., 1999). This effect is counter-acted by expression of PML-RAR and by high levels of ΔCC-PML-RAR. […]
The capacity of p53-RAR to block differentiation was evaluated using primary hematopoietic precursors purified from murine bone marrow on the basis of the absence of surface differentiation antigens (lin-see methods). […] After 8-10 days, colonies were pooled and analysed for the expression of myeloid differentiation markers (Mac-1 and GR-1). […]

[2] = system: U937 cells expressing PML-RAR under the control of an inducible promoter; test: Differentiation (CD14) of U937 cells with inducible PML-RAR treated with vitamin D and TGFβ; format: cell-based; details: PML-RAR induced, control infection (GFP alone), vitamin D and TGFβ
Text: The cells were either uninduced (ctr column), or induced to express PML-RAR (PML-RAR column). Cells were transduced with retroviral vectors encoding the coiled coil of PML (RBCC) and GFP as a marker, or with retroviral vectors encoding GFP alone as a control (control). […] In cells expressing the coiled coil of PML (gated in the cytofluorimetric analysis based on the positivity for the GFP marker), PML-RAR was unable to block efficiently differentiation (from 90% to 70%). Levels of expression of PML-RAR were unchanged by expressing the coiled coil region of PML.
RAR oligomerization through the coiled coil region of PML is required for its leukemogenic activity, and deletion of the PML coiled coil is sufficient to lead to loss of oncogenic potential (Minucci et al., 2000). Small molecule compounds able to disrupt PML-RAR oligomers would therefore be able to revert the leukemic phenotype.

B1: p53-RAR: RAR fused C-terminally to the tetramerization domain present in p53 (protein)
chain: GEYFTLQIRGRERFEMFRELNEALELKDAQAGMASNSSSCPTPGGGHLNGYPVPPYAFFFPPMLGGLSPPGALTTLQHQLPVSGYSTPSPATIETQSSSSEEIVPSPPSPPPLPRIYKPCFVCQDKSSGYHYGVSACEGCKGFFRRSIQKNMVYTCHRDKNCIINKVTRNRCQYCRLQKCFEVGMSKESVRNDRNKKKKEVPKPECSESYTLTPEVGELIEKVRKAHQETFPALCQLGKYTTNNSSEQRVSLDIDLWDKFSELSTKCIIKTVEFAKQLPGFTTLTIADQITLLKAACLDILILRICTRYTPEQDTMTFSDGLTLNRTQMHNAGFGPLTDLVFAFANQLLPLEMDDAETGLLSAICLICGDRQDLEQPDRVDMLQEPLLEALKVYVRKRRPSRPHMFPKMLMKITDLRSISAKGAERVITLKMEIPGSMPPLIQEMLENSEGLDTLSGQPGGGGRDGGGLAPPPGSCSPSLSPSSNRSSPATHSP
- effect on differentiation of transduced progenitors [1]: strong decrease in the number of Mac1+ and GR1+ cells

B2: PML-RAR: leukaemia-associated chimeric transcription factor, fusion of PML and RAR (protein)
chain: MEPAPARSPRPQQDPARPQEPTMPPPETPSEGRQPSPSPSPTERAPASEEEFQFLRCQQCQAEAKCPKLLPCLHTLCSGCLEASGMQCPICQAPWPLGADTPALDNVFFESLQRRLSVYRQIVDAQAVCTRCKESADFWCFECEQLLCAKCFEAHQWFLKHEARPLAELRNQSVREFLDGTRKTNNIFCSNPNHRTPTLTSIYCRGCSKPLCCSCALLDSSHSELKCDISAEIQQRQEELDAMTQALQEQDSAFGAVHAQMHAAVGQLGRARAETEELIRERVRQVVAHVRAQERELLEAVDARYQRDYEEMASRLGRLDAVLQRIRTGSALVQRMKCYASDQEVLDMHGFLRQALCRLRQEEPQSLQAAVRTDGFDEFKVRLQDLSSCITQGKDAAVSKKASPEAASTPRDPIDVDLPEEAERVKAQVQALGLAEAQPMAVVQSVPGAHPVPVYAFSIKGPSYGEDVSNTTTAQKRKCSQTQCPRKVIKMESEEGKEARLARSSPEQPRPSTSKAVSPPHLDGPPSPRSPVIGSEVFLPNSNHVASGAGEAIETQSSSSEEIVPSPPSPPPLPRIYKPCFVCQDKSSGYHYGVSACEGCKGFFRRSIQKNMVYTCHRDKNCIINKVTRNRCQYCRLQKCFEVGMSKESVRNDRNKKKKEVPKPECSESYTLTPEVGELIEKVRKAHQETFPALCQLGKYTTNNSSEQRVSLDIDLWDKFSELSTKCIIKTVEFAKQLPGFTTLTIADQITLLKAACLDILILRICTRYTPEQDTMTFSDGLTLNRTQMHNAGFGPLTDLVFAFANQLLPLEMDDAETGLLSAICLICGDRQDLEQPDRVDMLQEPLLEALKVYVRKRRPSRPHMFPKMLMKITDLRSISAKGAERVITLKMEIPGSMPPLIQEMLENSEGLDTLSGQPGGGGRDGGGLAPPPGSCSPSLSPSSNRSSPATHSP
- differentiation block ([1]; Mac-1, 8-10 days in methylcellulose): about 50%
- effect on differentiation of transduced progenitors [1]: strong reduction in their capacity to differentiate
- differentiated, CD14+ cells [2]: about 30%
